According to patent US20220033501A1 (SHANGHAI PHARMAEXPLORER, published 2022):
Where a chain is given by its changes, count along the chain named. Blank lines part the entries; values can stand above or below the binder they belong to.

Assays:
[1] = target: T1, monkey TIM-3 on CHOK1 stable cell line (CHOK1-cTIM-3) (monkey); test: FACS, CHOK1-cTIM-3 cells, 0.064 nM antibody
T1 chain: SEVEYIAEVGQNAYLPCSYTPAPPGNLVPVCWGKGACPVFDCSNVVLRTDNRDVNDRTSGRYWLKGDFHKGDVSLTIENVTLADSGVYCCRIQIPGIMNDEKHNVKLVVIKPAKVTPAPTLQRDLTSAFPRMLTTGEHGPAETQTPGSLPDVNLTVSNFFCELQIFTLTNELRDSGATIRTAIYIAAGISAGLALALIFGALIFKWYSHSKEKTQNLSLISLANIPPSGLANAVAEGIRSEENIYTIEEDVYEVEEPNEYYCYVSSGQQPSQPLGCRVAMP

[2] = target: T2, murine TIM-3 extracellular domain protein with hFc tag (mTIM-3-hFc) (mouse, UniProt Q8VIM0 29-191); test: ELISA, coated mouse TIM-3 ECD protein, 0.0667 nM antibody
T2 construct: also called mouse TIM-3 extracellular domain protein; not shown: human IgG Fc fragment (hFc) of the pCpC vector
T2 chain: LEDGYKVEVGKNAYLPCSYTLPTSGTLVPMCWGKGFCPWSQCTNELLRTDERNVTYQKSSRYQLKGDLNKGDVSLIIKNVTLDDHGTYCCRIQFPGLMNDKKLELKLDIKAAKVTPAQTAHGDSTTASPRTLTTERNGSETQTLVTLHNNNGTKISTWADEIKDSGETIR

[3] = target: T1, monkey TIM-3 on CHOK1 stable cell line …; test: FACS, CHOK1-cTIM-3 cells, 8 nM antibody
[4] = target: T1, monkey TIM-3 on CHOK1 stable cell line …; test: FACS, CHOK1-cTIM-3 cells, 1.6 nM antibody
[5] = target: T2, murine TIM-3 extracellular domain …; test: ELISA, coated mouse TIM-3 ECD protein, 0 nM antibody
[6] = target: T1, monkey TIM-3 on CHOK1 stable cell line …; test: FACS, CHOK1-cTIM-3 cells, 0.013 nM antibody

Mean fluorescence intensity [1]: 35.4 | OD450 [2]: 0.25 | Mean fluorescence intensity [3]: 340 | Mean fluorescence intensity [4]: 266 | OD450 [5]: 0.24 | Mean fluorescence intensity [6]: 12.7
B1: 34B6D8 fully human TIM-3 antibody (human IgG4, kappa) (antibody, V domains shown)
VH: EVQLVESGGGLVQPGGSLRLSCAASGFTFSTYWMTWVRQAPGKRLEWVANIKQGGGDKYYVDSVKGRFTISTDNAKNSLYLQMNSLRAEDTAVYYCARGSNWFDPWGQGTLVTVSS
VL: EIVMTQSPATLSMSPGERATLSCRASQSVYDNLAWYQQKPGQAPRLLIYGASTRATGIPARFSGSGSGTEFTLTISSLQSEDFALYYCQQYTHWPITFGQGTRLEIK

Mean fluorescence intensity [1]: 42.3 | OD450 [2]: 0.24 | Mean fluorescence intensity [3]: 349 | Mean fluorescence intensity [4]: 315 | OD450 [5]: 0.24 | Mean fluorescence intensity [6]: 14.8
B2: 39E5H1 fully human TIM-3 antibody (human IgG4, kappa) (antibody, V domains shown)
VH: B1 VH with T31S, T35S, R44G, Q53R, G56S, D57E, K58R, T72G, L79V
VL: B1 VL with I2T, T10I, M13V, D31S, P40L, G50D, L85V, T92N, H93N
